Measured values from US20100322950.

Assays:
[1] = system: recombinant human osteopontin (OPN), full-length
[2] = target: tissue inhibitor of matrix metalloproteinase-1 (TIMP-1) (UniProt P01033)
Sequence of tissue inhibitor of matrix metalloproteinase-1 (TIMP-1) (P01033 24-207): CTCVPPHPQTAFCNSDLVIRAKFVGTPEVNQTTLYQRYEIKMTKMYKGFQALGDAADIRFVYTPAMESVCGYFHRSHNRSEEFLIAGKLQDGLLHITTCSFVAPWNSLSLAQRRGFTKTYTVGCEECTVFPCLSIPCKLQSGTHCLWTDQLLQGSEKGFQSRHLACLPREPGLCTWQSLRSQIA

Sequence of human matrix metalloproteinase-9 (MMP-9) (Calbiochem) (chain, as listed by the source): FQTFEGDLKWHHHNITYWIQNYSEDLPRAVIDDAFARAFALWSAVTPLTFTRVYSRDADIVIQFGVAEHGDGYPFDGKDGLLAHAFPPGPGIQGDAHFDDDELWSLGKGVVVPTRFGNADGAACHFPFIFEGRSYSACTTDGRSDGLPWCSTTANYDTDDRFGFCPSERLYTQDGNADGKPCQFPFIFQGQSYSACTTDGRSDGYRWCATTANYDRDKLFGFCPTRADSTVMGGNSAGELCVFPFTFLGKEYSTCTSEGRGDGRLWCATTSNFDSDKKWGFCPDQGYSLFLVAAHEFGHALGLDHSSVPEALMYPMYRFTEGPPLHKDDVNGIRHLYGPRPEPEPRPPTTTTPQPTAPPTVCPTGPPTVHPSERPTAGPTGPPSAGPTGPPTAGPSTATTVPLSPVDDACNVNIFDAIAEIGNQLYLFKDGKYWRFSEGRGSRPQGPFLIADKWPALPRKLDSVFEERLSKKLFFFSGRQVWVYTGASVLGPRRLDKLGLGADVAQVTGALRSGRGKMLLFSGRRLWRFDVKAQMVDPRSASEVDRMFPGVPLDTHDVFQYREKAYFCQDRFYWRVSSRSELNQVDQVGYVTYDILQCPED
Sequence of recombinant human osteopontin (OPN), full-length (chain, as listed by the source): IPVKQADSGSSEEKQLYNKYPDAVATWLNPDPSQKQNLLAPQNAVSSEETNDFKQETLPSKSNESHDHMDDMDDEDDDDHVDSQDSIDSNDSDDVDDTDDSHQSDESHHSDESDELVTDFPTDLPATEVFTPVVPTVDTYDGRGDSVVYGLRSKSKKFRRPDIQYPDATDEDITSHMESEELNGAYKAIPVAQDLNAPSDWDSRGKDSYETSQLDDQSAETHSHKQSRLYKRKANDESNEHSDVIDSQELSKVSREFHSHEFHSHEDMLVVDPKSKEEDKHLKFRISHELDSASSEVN

human matrix metalloproteinase-9 (MMP-9) (Calbiochem)
in vitro proteolytic cleavage of OPN (SDS-PAGE, N-terminal microsequencing, western blot) [1]: Recombinant MMP-9 cleaved OPN at two predominant sites in vitro, residues 166 and 210, resulting in 4 identified fragments
MMP-9 cleavage of OPN (formation of the OPN-5 kD fragment), TIMP-1 added to the reaction [2]: could not be detected in cleavage reactions partially inhibited by the concomitant addition of EDTA, a naturally-occurring inhibitor of MMP-9 (tissue inhibitor of matrix metalloproteinase-1, or TIMP-1), or the hydroxamate MMP-9 inhibitor I
